{
  "source": "patent US20250327097A1",
  "about": "“ORGANISMS PRODUCING LESS CROTONIC ACID” (Global Bioenergies, priority 2021, published 2025)",
  "molecules": {"B1": {"name": "I283T-P284D-i284aP-N287P-S322T-N388M-E421V-C430N-L432F-L434W-S436N-H461T-G462R-i462aA-A463T (protein)", "chain": "MFLKSLREQINLLKRQGDLRIINRPVDSYLEAAAIIRRSTETKAPVPLMTNIKGYPGCSIVGGLAALSSNPEYPLSRVAMSLGLSTTASAQSIVQYLIDGLKKTPYLPVEIDSNSAPCKQNILRGEDASLAHFPIPQVHQHDGNRYVNTWGVFIVESPDGQWCNWSIQRVQYLNDRQMIALVFPSQHISDIWEEWVKIGKPMPYALVQGCEPIVPYIAGLPLLERNVNEAEYIGALYGKGIEVVKCETHDLRVPASSEVVIEGYFAITREGVEGPFGEFAGYTDNEPSLQPILSITAISWQDDPIWPVVAEGKPVDEYHTCTGIGDAAAIQNVLLTANLPVSFVWVPLYSACHLMIVSINRHWRQTHPDLTSEQLTKKVGDVIHQTRMSIKLPKIVVLDDDVDPADTESLLWALATRIHPVRKRYFYESNIFPWLNCYSEEERHNRKGKRVIIDALLPENTRTISSFDYAYPDDIKQRVLMHWETDFSHD"}, "B2": {"name": "I283T-P284D-i284aP-N287P-S322T-H384S-N388M-E421V-C430N-L432F-L434W-S436N-C437F-H461T-G462R-i462aA-A463T (protein)", "chain": "B1 chain with H384S, C437F"}, "B3": {"name": "V272I-I283T-P284D-i284aP-N287P-S322T-N388M-E421V-C430N-L432F-L434W-S436N-C437F-H461T-G462R-i462aA-A463T (protein)", "chain": "B1 chain with V272I, C437F"}, "B4": {"name": "I283T-P284D-i284aP-N287P-S322T-N388M-E421V-C430N-L432F-L434W-S436N-C437F-Y438L-H461T-G462R-i462aA-A463T (protein)", "chain": "B1 chain with C437F, Y438L"}, "B5": {"name": "V272R-I283T-P284D-i284aP-N287P-S322T-N388M-E421V-C430N-L432F-L434W-S436N-H461T-G462R-i462aA-A463T (protein)", "chain": "B1 chain with V272R"}, "B6": {"name": "R15L-I283T-P284D-i284aP-N287P-S322T-K378M-N388M-E421V-C430N-L432F-L434W-S436N-H461T-dG462-A463T (protein)", "chain": "B1 chain with R15L, K378M, R462G"}, "B7": {"name": "V272I-I283T-P284D-i284aP-N287P-S322T-N388M-E421V-C430R-L432F-L434W-S436N-C437F-Y438L-H461T-G462R-i462aA-A463T (protein)", "chain": "B1 chain with V272I, N430R, C437F, Y438L"}, "B8": {"name": "V272K-I283T-P284D-i284aP-N287P-S322T-N388M-E421V-C430N-L432F-L434W-S436N-C437F-H461T-G462R-i462aA-A463T (protein)", "chain": "B1 chain with V272K, C437F"}, "B9": {"name": "V272I-I283T-P284D-i284aP-N287P-S322T-N388M-E421V-C430N-L432F-L434W-S436N-H461T-dG462-A463T (protein)", "chain": "B1 chain with V272I, R462G"}, "B10": {"name": "V272R-I283T-P284D-i284aP-N287P-S322T-N388M-E421V-C430N-L432F-L434W-S436N-C437F-H461T-G462R-i462aA-A463T (protein)", "chain": "B1 chain with V272R, C437F"}, "B11": {"name": "I283T-P284D-i284aP-N287P-S322T-N388M-E421V-C430N-L432F-L434W-S436N-C437F-G448E-H461T-dG462-A463T (protein)", "chain": "B1 chain with C437F, G448E, R462G"}, "B12": {"name": "I283T-P284D-i284aP-N287P-S322T-N388M-E421V-C430N-L432F-L434W-S436N-C437F-G448E-H461T-G462R-i462aA-A463T (protein)", "chain": "B1 chain with C437F, G448E"}, "B13": {"name": "V272L-I283T-P284D-i284aP-N287P-S322T-N388M-E421V-C430N-L432F-L434W-S436N-H461T-dG462-A463T (protein)", "chain": "B1 chain with V272L, R462G"}, "B14": {"name": "I283T-P284D-i284aP-N287P-S322T-N388M-E421V-C430N-L432F-L434W-S436N-G448E-H461T-G462R-i462aA-A463T (protein)", "chain": "B1 chain with G448E"}, "B15": {"name": "I283T-P284D-i284aP-N287P-S322T-N388M-E421V-C430N-L432F-L434W-S436N-C437F-H461T-G462R-i462aA-A463T (protein)", "chain": "B1 chain with C437F"}, "B16": {"name": "I283T-P284D-i284aP-N287P-S322T-N388M-E421V-C430R-L432F-L434W-S436N-C437F-H461T-G462R-i462aA-A463T (protein)", "chain": "B1 chain with N430R, C437F"}, "B17": {"name": "V272I-I283T-P284D-i284aP-N287P-S322T-N388M-E421V-C430R-L432F-L434W-S436N-C437F-H461T-G462R-i462aA-A463T (protein)", "chain": "B1 chain with V272I, N430R, C437F"}, "B18": {"name": "V272R-I283T-P284D-i284aP-N287P-S322T-N388M-E421V-C430N-L432F-L434W-S436N-C437F-G448E-H461T-G462R-i462aA-A463T (protein)", "chain": "B1 chain with V272R, C437F, G448E"}, "B19": {"name": "V272R-I283T-P284D-i284aP-N287P-S322T-N388M-E421V-C430N-L432F-L434W-S436N-C437F-H461T-dG462-A463T (protein)", "chain": "B1 chain with V272R, C437F, R462G"}, "B20": {"name": "I283T-P284D-i284aP-N287P-S322T-N388M-E421V-C430N-L432F-L434W-S436N-C437F-E441V-H461T-G462R-i462aA-A463T (protein)", "chain": "B1 chain with C437F, E441V"}, "B21": {"name": "V272R-I283T-P284D-i284aP-N287P-S322T-N388M-E421V-C430N-L432F-L434W-S436N-H461T-dG462-A463T (protein)", "chain": "B1 chain with V272R, R462G"}, "B22": {"name": "V272R-I283T-P284D-i284aP-N287P-S322T-N388M-E421V-C430N-L432F-L434W-S436N-G448E-H461T-G462R-i462aA-A463T (protein)", "chain": "B1 chain with V272R, G448E"}, "B23": {"name": "I283T-P284D-i284aP-N287P-S322T-N388M-I418V-E421V-C430N-L432F-L434W-S436N-C437F-H461T-G462R-i462aA-A463T (protein)", "chain": "B1 chain with I418V, C437F"}, "B24": {"name": "V272R-I283T-P284D-i284aP-N287P-S322T-N388M-E421V-C430N-L432F-L434W-S436N-G448E-H461T-dG462-A463T (protein)", "chain": "B1 chain with V272R, G448E, R462G"}, "B25": {"name": "V272R-I283T-P284D-i284aP-N287P-S322T-N388M-E421V-C430N-L432F-L434W-S436N-C437F-G448E-H461T-dG462-A463T (protein)", "chain": "B1 chain with V272R, C437F, G448E, R462G"}, "B26": {"name": "I283T-P284D-i284aP-N287P-S322T-N388M-E421V-C430N-L432F-L434W-S436Q-C437F-H461T-G462R-i462aA-A463T (protein)", "chain": "B1 chain with N436Q, C437F"}, "B27": {"name": "I283T-P284D-i284aP-N287P-S322T-N388M-E421V-C430R-L432F-L434W-S436N-C437F-Y438L-H461T-G462R-i462aA-A463T (protein)", "chain": "B1 chain with N430R, C437F, Y438L"}, "B28": {"name": "K43E-I283T-P284D-i284aP-N287P-S322T-N388M-E421V-C430P-L432F-L434W-S436N-C437F-H461T-G462R-i462aA-A463T (protein)", "chain": "B1 chain with K43E, N430P, C437F"}, "B29": {"name": "A33P-I283T-P284D-i284aP-N287P-S322T-N388M-E421V-C430N-L432F-L434W-S436N-C437F-H461T-G462R-i462aA-A463T (protein)", "chain": "B1 chain with A33P, C437F"}},
  "test_system": "3-methylcrotonic acid",
  "assay_type": "biochemical, Yersinia frederiksenii",
  "parameters": "key: “+” representing a low increase in activity; “++++” representing a high increase in activity",
  "note": "Numbering of substitutions follows the chain as printed. Names may count otherwise.",
  "data": [
    {"molecule": "B1", "values": [
      {"measurement": "Activity relative to WT", "value": "++++"}
    ]},
    {"molecule": "B2", "values": [
      {"measurement": "Activity relative to WT", "value": "++++"}
    ]},
    {"molecule": "B3", "values": [
      {"measurement": "Activity relative to WT", "value": "++++"}
    ]},
    {"molecule": "B4", "values": [
      {"measurement": "Activity relative to WT", "value": "++++"}
    ]},
    {"molecule": "B5", "values": [
      {"measurement": "Activity relative to WT", "value": "++++"}
    ]},
    {"molecule": "B6", "values": [
      {"measurement": "Activity relative to WT", "value": "++++"}
    ]},
    {"molecule": "B7", "values": [
      {"measurement": "Activity relative to WT", "value": "++++"}
    ]},
    {"molecule": "B8", "values": [
      {"measurement": "Activity relative to WT", "value": "++++"}
    ]},
    {"molecule": "B9", "values": [
      {"measurement": "Activity relative to WT", "value": "++++"}
    ]},
    {"molecule": "B10", "values": [
      {"measurement": "Activity relative to WT", "value": "++++"}
    ]},
    {"molecule": "B11", "values": [
      {"measurement": "Activity relative to WT", "value": "++++"}
    ]},
    {"molecule": "B12", "values": [
      {"measurement": "Activity relative to WT", "value": "++++"}
    ]},
    {"molecule": "B13", "values": [
      {"measurement": "Activity relative to WT", "value": "++++"}
    ]},
    {"molecule": "B14", "values": [
      {"measurement": "Activity relative to WT", "value": "++++"}
    ]},
    {"molecule": "B15", "values": [
      {"measurement": "Activity relative to WT", "value": "++++"}
    ]},
    {"molecule": "B16", "values": [
      {"measurement": "Activity relative to WT", "value": "++++"}
    ]},
    {"molecule": "B17", "values": [
      {"measurement": "Activity relative to WT", "value": "++++"}
    ]},
    {"molecule": "B18", "values": [
      {"measurement": "Activity relative to WT", "value": "++++"}
    ]},
    {"molecule": "B19", "values": [
      {"measurement": "Activity relative to WT", "value": "++++"}
    ]},
    {"molecule": "B20", "values": [
      {"measurement": "Activity relative to WT", "value": "++++"}
    ]},
    {"molecule": "B21", "values": [
      {"measurement": "Activity relative to WT", "value": "++++"}
    ]},
    {"molecule": "B22", "values": [
      {"measurement": "Activity relative to WT", "value": "++++"}
    ]},
    {"molecule": "B23", "values": [
      {"measurement": "Activity relative to WT", "value": "++++"}
    ]},
    {"molecule": "B24", "values": [
      {"measurement": "Activity relative to WT", "value": "++++"}
    ]},
    {"molecule": "B25", "values": [
      {"measurement": "Activity relative to WT", "value": "++++"}
    ]},
    {"molecule": "B26", "values": [
      {"measurement": "Activity relative to WT", "value": "++++"}
    ]},
    {"molecule": "B27", "values": [
      {"measurement": "Activity relative to WT", "value": "++++"}
    ]},
    {"molecule": "B28", "values": [
      {"measurement": "Activity relative to WT", "value": "++++"}
    ]},
    {"molecule": "B29", "values": [
      {"measurement": "Activity relative to WT", "value": "++++"}
    ]}
  ]
}
